From US6896884B2, “Human chitinase, its recombinant production, its use for decomposing chitin, its use in therapy or prophylaxis against infection diseases” (Universiteit va Amsterdam, priority 1995, dated 2005)

What was measured:
[1] = hydrolysis of 4-methylumbelliferyl-chitobioside versus 4-methylumbelliferyl-chitotrioside; format: biochemical; settings: 4-methylumbelliferyl substrates
From the text: Purified 50 kDa and 39 kDa tissue chitotriosidases, and 50 kDa and 39 kDa chitozymes produced by recombinant DNA technology, are able to hydrolyse 4-methylumbelliferyl-chitotrioside and 4-methylumbelliferyl-chitobioside, the ratio of chitobioside activity to chitotrioside activity being about 0.7. Furthermore, p-nitrophenyl-chitotrioside and p-nitrophenyl-chitobioside are also efficiently hydrolyzed.

[2] = format: in vitro ADME
Experimental: Production of the chitozymes via conventional technology in insect cells, plant cells, or vertebrate cells should be possible. Finally, transgenic animals could be envisioned as producers of large quantities of chitozymes in their milk for the applications described above. […] Successful proteolytic cleavage is only accomplished after denaturation of the enzyme, e.g. after heating in the presence of sodium dodecylsulphate. […] In analogy, chitotriosidase is stable at 37° C. in macrophage-conditioned medium that contains large quantities of various other secreted lytic enzymes.

[3] = format: physicochemical
[4] = chitin azure degradation (release of soluble azure at 550 nm); format: biochemical; settings: chitin azure 10 mg/ml, citrate/phosphate buffer pH 5.2; control chitinase from Serratia marcescens
Experimental: Chitin azure (Sigma) suspended in citrate/phosphate buffer (pH 5.2) at a final concentration of 10 mg/ml was used to monitor chitinase activity. Chitin degradation was detected spectrophotometrically at 550 nm by determination of release of soluble azure (18). Chitinase from Serratia marcescens (Sigma) was used as control. […] See for example ref.18.

[5] = test system: cell wall suspension of Micrococcus lysodeikticus; test: lysozyme activity towards bacterial cell wall suspension; format: biochemical
[6] = test system: Mucor mucedo; test: fungicidal effect on hyphal growth; format: cell-based; settings: for effect on hyphal growth, microscopical analysis: enzyme solution in 0.15 M NaCl pipetted on hyphal tips
Experimental: To test whether human chitotriosidase can exert an antifungal action, a chitinous fungus (Mucor mucedo) was grown on plates (containing malt extract, peptone, glucose and agar) under a Cellophane membrane in order to keep the hyphae flat against the agar surface (see ref.16). Individual sectors were cut out and mounted on microscope slides. Purified chitozyme 50 and chitozyme 39 were dialysed against 0.15 M sodium chloride. Samples of enzyme-containing solutions, and 0.15 M NaCl were pipetted on the hyphal tips. […] Application of saline had no effect. Negative effects on hyphal growth were detectable using chitozyme solutions with a concentration of enzyme as little as 0.005 mg/ml.

[7] = test system: a variety of proteases; format: in vitro ADME
Experimental: Successful proteolytic cleavage is only accomplished after denaturation of the enzyme, e.g. after heating in the presence of sodium dodecylsulphate. […] In analogy, chitotriosidase is stable at 37° C. in macrophage-conditioned medium that contains large quantities of various other secreted lytic enzymes.

[8] = rat, in vivo
From the text: A prerequisite for the intravenous application of the chitinase is insight in its clearance. In the blood stream the most predominant isozyme is the 50 kDa protein. In tissue predominantly a 39 kDa isozyme is encountered. This appears to be formed by uptake of 50 kDa protein followed by proteolytic cleavage to a 39 kDa form that is remarkably stable in the lysosomal environment. […] Clearance is not a very rapid process as monitored by the disappearance of activity of human chitotriosidase in the blood stream of intravenously injected rats, the half life being about one hour. Only minor amounts of chitotriosidase are daily excreted into the urine. It is conceivable that some enzyme is efficiently recaptured by proximal tube epithelial cells since kidney is found to be extremely rich in ‘lysosomally processed’ 39 kDa enzyme.

Substance | ratio of chitobioside activity to chitotrioside activity [1] | stability against a variety of proteases [7] | clearance from the circulation [8] | effect on hyphal growth, microscopical analysis [6] | other results
50 kDa tissue chitotriosidase: 50 kDa chitotriosidase purified from Gaucher disease spleen | about 0.7 | – | – | – | –
chitotriosidase: human chitinase produced by macrophages, named chitotriosidase; isoform not specified at the place | – | – | – | – | loss of enzyme activity on prolonged incubation [2]: does not result in detectable loss of enzyme activity; stability in macrophage-conditioned medium [2]: stable; enzyme activity after spotting on filter paper ([3]; storage for several days at room temperature): enzyme activity is still recovered; loss of enzyme activity upon storage and freeze-thaw ([3]; −20 or −70° C., repeated cycles of freezing and thawing): No loss of enzyme activity; chitinase activity, related to hydrolysis of 4-methyl-umbelliferyl-chitotrioside [4]: comparable to that of the bacterial chitinase; activity towards Micrococcus lysodeikticus cell wall suspension (lysozyme activity) [5]: No significant activity; effect on fungal growth ([6]; Mucor species): inhibited growth
chitozyme 39: recombinant human chitotriosidase isozyme of 39 kDa, encoded by chi.39 cDNA (SEQ ID NO:6), produced by transfected COS cells | about 0.7 | extremely stable | not immediately cleared | immediate cessation of hyphal growth | –
chitozyme 50: recombinant human chitotriosidase isozyme of 50 kDa, encoded by chi.50 cDNA (SEQ ID NO:4), produced by transfected COS cells | about 0.7 | extremely stable | not immediately cleared | immediate cessation of hyphal growth | half life in the circulation, compared between isozymes [8]: somewhat longer than that of the 39 kDa enzyme
chitozyme: recombinant chitotriosidase, isozyme not specified at the place | – | – | – | – | stability when added to cow milk [2]: completely stable
tissue chitotriosidase: chitotriosidase purified from Gaucher disease spleen, isoform not specified | – | – | not immediately cleared | – | –
